Measurements: patent US20250179196A1 (Janssen / Centocor, published 2025)

T1: human IL-23R expressed on the cell surface of stably transfected iLite and HEK cell lines (human, UniProt Q5VWK5 24-629)
T1 construct: whole, on cells; Same receptor on two transfected cell lines; the cell line is named under assay; also called human IL-23R iLite cells; human IL-23R HEK cells
T1 sequence (looked up): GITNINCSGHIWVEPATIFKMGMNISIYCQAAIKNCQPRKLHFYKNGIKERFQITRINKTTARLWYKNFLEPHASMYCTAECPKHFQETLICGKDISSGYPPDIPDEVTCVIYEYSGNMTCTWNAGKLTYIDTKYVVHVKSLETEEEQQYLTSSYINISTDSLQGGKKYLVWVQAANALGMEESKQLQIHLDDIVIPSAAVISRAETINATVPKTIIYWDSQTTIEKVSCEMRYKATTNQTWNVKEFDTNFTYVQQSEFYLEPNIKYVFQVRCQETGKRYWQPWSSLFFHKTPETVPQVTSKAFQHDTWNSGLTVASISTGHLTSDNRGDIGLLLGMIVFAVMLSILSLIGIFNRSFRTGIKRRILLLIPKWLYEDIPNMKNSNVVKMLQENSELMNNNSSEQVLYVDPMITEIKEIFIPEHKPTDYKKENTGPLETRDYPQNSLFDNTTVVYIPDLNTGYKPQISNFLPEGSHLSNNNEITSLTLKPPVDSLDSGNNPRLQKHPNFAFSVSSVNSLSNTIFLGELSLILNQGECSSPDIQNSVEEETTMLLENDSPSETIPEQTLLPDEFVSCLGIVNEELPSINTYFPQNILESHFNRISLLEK

B1: I23RB83 (antibody, mouse IgG2a, kappa, V domains shown)
VH: DVQLQESGPGLVAPSQSLSITCTVSGFSLTNYDVHWVRQSPGKGLEWLGVIWSDGSTDYNAAFISRLSFSKDNSKRQVFFKMNSLQPDDTAIYYCARNNYYRYGRNPMDYWGQGTTVTVSS
VL: DIQMTQSPASQSASLGESVTITCLASQTIGSWLAWYQQKPGKSPQLLIYAATSLADGVPSRFSGSGSGTKFSFKISSLQAEDFVSYYCQQLYSSPLTFGGGTKLEIKR
notes: immunization; mouse IgG2a/kappa
B2: I23RB74 (antibody, mouse IgG2a, kappa, V domains shown)
VH: DVQLQESGPGLVKPSQSLSLTCSVTGYSITSGYYWNWIRQFPGNKLEWMGYISYDGSFNYNPSLKNRLSITRDTSMNQFFLKLNSVTSEDTATYYCARAEIYYDYDGDFDYWGQGTTLTVSS
VL: DIVLTQSPASLAVSLGQRATISCRASKSVSTSGSNFLHWYQQKPGQPPKLLIYFASNLESGVPARFSGSGSGTDFTLNIHPVEEEDAATYYCQHSRELPHTFGAGTKLELKR
notes: as for B1
B3: I23RB77 (antibody, mouse IgG2a, kappa, V domains shown)
VH: DVQLQESGPGLVAPSQSLSITCTVSGFSLSRYSVHWVRQPPGKGLEWLGMIWGSGSTDYNSALKSRLSINKDNSKSQVFLKMNSLQTDDTAMYYCARVYYGGSPYAMDYWGQGTTVTVSS
VL: DIVMTQSPASLALSLGQRATISCRASESVDSYGNSFMHWYQQKPGQPPKLLIYLASNLESGVPARFSGSGSRTDFTLTIDPVEADDAAIYYCQQNNEEPNTFGAGTKLEMKR
notes: as for B1
B4: I23RB86 (antibody, mouse IgG2a, kappa, V domains shown)
VH: EVQLQQSGAELVKPGASVKLSCKASGYTFTSYWLHWVKQRPGQGLEWIGEIDPSDSYTYYNQKFKGKATLTVDKSSSTAYMQLSSLTSEDSAVYYCARSPYDYDWGAYWGQGTSVTVSS
VL: DIVMTQSPSSMSVSLGDTVSITCHASQGISSNIGWLQQKPGKSFKGLIYHGTNLEDEVPSRFSGSGSGADYSLTIGSLESEDFADYYCVQYAQFPWTFGAGTKLEMKR
notes: as for B1
B5: I23RB73 (antibody, mouse IgG2a, kappa, V domains shown)
VH: EVQLQQSGAELVKPGASVKISCKASGYTFTDHAIHWVKQRPEQGLEWIGYISLGNGDIKYSEKFRGKATLTADKTSNTAYMQLNSLTSEDSAVYFCKRSRVLRWTTYWYFDVWGAGTSVTVSS
VL: DIVMTQSHKFMSTSVGDRVSITCKASQDVSTAVAWYQQKPGQSPKLLIYWASTRLTGVPDRFTGSGSGTDYTLTISSVQAEDLALYYCQQYYNTPLTFGAGTKLELKR
notes: as for B1
B6: I23RB82 (antibody, mouse IgG2a, kappa, V domains shown)
VH: QVQLKESGPGLVAPSQSLSITCTVSGFSLTNYALHWFRQSPGKGLEWLGVIWSDGSTDYNSPFISRLSISKDNSKSQVFFKMNSLQADDTAIYYCARSRSNYGRWYFDVWGAGTTLTVSS
VL: QIVLSQSHKFMSTSVGDRVSITCKASQDVSTAVAWYQQKPGQSPKLLIYSAFYRYTGVPDRFTGSGSGTDFTFTISSVQAEDLAVYYCQQHYSTPYTFGGGTKLEIKR
notes: as for B1
B7: I23RB71 (antibody, mouse IgG2a, kappa, V domains shown)
VH: DVQLQESGPDLVKPSQSLSLTCTVTDYSITRGYNWHWIRQFPGNKLEWMGYIHYSGSTNYNPSLKSRISITRDTSKNQFFLQLNSVTTEDTATYYCARQYGLKAMDYWGQGTSVTVSS
VL: DIVMTQSHKFMSTSVGDRVSITCKASQDVITAVAWYQQKPGQSPKLLIYSASYRYTGVPDRFTGSGSGTDFTFTISSVQAEDLAVYFCQQHFGTPYTFGSGTKLEMKR
notes: as for B1
B8: I23RB81 (antibody, mouse IgG2a, kappa, V domains shown)
VH: DVQLQESGPGLVAPSQSLSITCTVSGFSLTSYAINWVRQPPGKGLEWLGVIWTGGGTNYNSALKSRLSISKDNSKSQLFLKMNSLQTDDTARYYCARNRDYSNYRWYFDVWGAGTSVTVSS
VL: DIVMTQSHKFMSTSVGDRVSIICKASQDVSTAVAWYQQKPGQSPKLLIYSASYRYTGVPDRFTGSGSGTDFTFTISSVQAEDLAVYYCQQHYSTPLTFGAGTRLEIKR
notes: as for B1

Columns and labels:
[1] = target: T1, human IL-23R expressed on the cell …; assay: flow cytometry on human IL-23R HEK cells, Expt D (8-point, 96well)
Experimental: HEK-IL-23R cell concentration response mAb binding (8-point, 96-well assay). […] HEK-IL-23R and HEK-parental cells (12.5 μL of each, 120000 cells total) were plated in 2× replicate on 96-well V-bottom plates (Corning, Cat #3357) into 37° C. warmed Assay medium containing serially diluted IL-23R mAbs to a final volume of 150 μL. IL-23R mAbs were allowed to bind to cells for 30 minutes, at 37° C. […] Cells were next washed twice in ice-cold stain buffer, then resuspended in a final volume of 30 μL with Sytox Green viability dye (ThermoFisher, Cat #S7020). Plates were kept on ice until run for analysis on the iQue. All washes were performed by centrifugation (800 rcf, 3 minutes) followed by flick decantation to remove supernatants. Cell-binding to HEK-IL-23R cells was measured with FlowJo, by gating for single, viable cells and determining the geometric mean fluorescence intensity (MFI) for the 647 detection antibody. Geometric mean fluorescence intensities were plotted over log mAb concentrations fitted with a dose response curve with variable slope using GraphPad Prism.

[2] = target: T1, human IL-23R expressed on the cell …; assay: flow cytometry on human IL-23R HEK cells, Expt E (11-point, 384well)
Experimental: HEK-IL-23R cell concentration response mAb binding (11-point, 384-well assay). […] IL-23R mAbs were allowed to bind to cells for 30 minutes, at 37° C. […] Cells were next washed twice in ice-cold stain buffer, then resuspended in a final volume of 10 μL with Sytox Green viability dye (ThermoFisher, Cat #S7020). Plates were kept on ice until run for analysis on the iQue. All washes were performed by centrifugation (800 rcf, 3 minutes) followed by automated aspiration to remove supernatants with plate washers. Cell-binding to HEK-IL-23R cells was measured with FlowJo, by gating for single, viable cells and determining the geometric mean fluorescence intensity (MFI) for the 647 detection antibody. Geometric mean fluorescence intensities were plotted over log mAb concentrations fitted with a dose response curve with variable slope using GraphPad Prism.

| Binder | EC50 [1] [nM] | EC50 [2] [nM] | MFI (6.4 nM) [2] [MFI] |
| --- | --- | --- | --- |
| B1 | 0.7 | 31.5 | 121000 |
| B2 | 0.3 | 13 | 185000 |
| B3 | 0.2 | 4.8 | 184000 |
| B4 | 1.2 | 22.8 | 164000 |
| B5 | 1.8 | 11.6 | 158000 |
| B6 | 0.6 | 9.8 | 181000 |
| B7 | ~6.7 | 3.4 | 110000 |
| B8 | 0.9 | 7.2 | 181000 |
